What was measured:
[1] = system: KB tumor xenografts; experiment: Subcutaneous KB tumor xenograft efficacy study; type: in vivo, SCID mice
Protocol: Tumor cells were inoculated on day 0, and the first treatment was given on day 6. Immunoconjugate treatments continued daily for a total of 5 doses. PBS control animals were euthanized once tumor volumes exceeded 1500 mm^3. The conjugate was given at a dose of 150 or 225 μg/kg DM1, corresponding to antibody concentrations of 5.7 and 8.5 mg/kg respectively. The body weights (FIG. 25B) of the mice were monitored during the course of the study.
A subcutaneous model of the human cervical carcinoma cell-line, KB, was developed. KB cells were grown in vitro, collected, and 5×10^6 cells in a 100 μL of serum free medium were injected under the right shoulder of each mouse and allowed to grow for 6 days to an average tumor volume of 144±125 mm^3 at which time drug treatment was initiated. Mice were given either PBS, conjugate at 150 μg/kg DM1, or conjugate at 225 μg/kg DM1 (2 mice per group) intravenously every day for 5 days. Toxic responses were monitored daily during the treatment. Tumor volumes (FIG. 25A) and corresponding body weights (FIG. 25B) were monitored throughout the study.

[2] = system: MDA-MB-231 cells; experiment: Flow cytometry binding assay; set-up: species or system human
Protocol: (§1) Flow cytometric analysis was used to localize the DS6 epitope, CA6, to the cell surface. Human cell lines were obtained from the American Type Culture Collection (ATCC) with the exception of OVCAR5 (Kearse et al., Int. J. Cancer 88(6):866-872 (2000)), OVCAR8 and IGROV1 cells (M. Seiden, Massachusetts General Hospital). All cells were grown in RPMI 1640 supplemented with 4 mM L-glutamine, 50 U/ml penicillin, 50 μg/ml streptomycin (Cambrex Bio Science, Rockland, Me.) and 10% v/v fetal bovine serum (Atlas Biologicals, Fort Collins, Colo.), referred hereafter as culture media. Cells were maintained in a 37° C., 5% CO2 humidified incubator.
(§2) Cells ([…]) were incubated, on ice for 3-4 h, with serially diluted concentrations of the DS6 antibody prepared in FACS buffer (2% goat serum, RPMI) into 96-well plates. The cells were spun down in a table top centrifuge at 1500 rpm for 5 min at 4° C. After removing the media, the wells were then refilled with 150 μl of FACS buffer. The wash step was then repeated. FITC-labeled goat anti-mouse IgG (Jackson Immunoresearch) was diluted 1:100 to FACS buffer and incubated with the cells for 1 h on ice. The plate was covered in foil to prevent photobleaching of the signal. After two washes, the cells were fixed with 1% formaldehyde and analyzed on a flow cytometer.

[3] = system: OVCAR5 cells; experiment: Flow cytometry binding assay; set-up: species or system human
Protocol: as §1, §2

[4] = system: ZR-75-1 cells; experiment: Flow cytometry binding assay; set-up: species or system human
Protocol: as §1, §2

[5] = system: PC-3 cells; experiment: Flow cytometry binding assay; set-up: species or system human
Protocol: as §1, §2

[6] = system: BT-483 cells; experiment: Flow cytometry binding assay; set-up: species or system human
Protocol: as §1, §2

[7] = system: WISH cells; experiment: Flow cytometry binding assay; set-up: species or system human
Protocol: as §1, §2

[8] = system: T98G cells; experiment: Flow cytometry binding assay; set-up: species or system human
Protocol: as §1, §2

[9] = system: MCF-7 cells; experiment: Flow cytometry binding assay; set-up: species or system human
Protocol: as §1, §2

[10] = system: Caov-4 cells; experiment: Flow cytometry binding assay; set-up: species or system human
Protocol: as §1, §2

[11] = system: BxPC-3 cells; experiment: Flow cytometry binding assay; set-up: species or system human
Protocol: as §1, §2

[12] = system: SW1990 cells; experiment: Flow cytometry binding assay; set-up: species or system human
Protocol: as §1, §2

[13] = system: KLE cells; experiment: Flow cytometry binding assay; set-up: species or system human
Protocol: as §1, §2

[14] = system: SU.86.86 cells; experiment: Flow cytometry binding assay; set-up: species or system human
Protocol: as §1, §2

[15] = system: HPAF-II cells; experiment: Flow cytometry binding assay; set-up: species or system human
Protocol: as §1, §2

[16] = system: HPAC cells; experiment: Flow cytometry binding assay; set-up: species or system human
Protocol: as §1, §2

[17] = system: T-47D cells; experiment: Flow cytometry binding assay; set-up: species or system human
Protocol: as §1, §2

[18] = 150 μg/kg DM1 i.v. daily for 5 days

B1: DS6-DM1: muDS6 antibody modified with SPP and conjugated to the maytansinoid DM1 (conjugate)
VH: QAYLQQSGAELVRSGASVKMSCKASGYTFTSYNMHWVKQTPGQGLEWIGYIYPGNGATNYNQKFKGKATLTADPSSSTAYMQISSLTSEDSAVYFCARGDSVPFAYWGQGTLVTVSA
VL: QIVLTQSPAIMSASPGEKVTITCSAHSSVSFMHWFQQKPGTSPKLWIYSTSSLASGVPARFGGSGSGTSYSLTISRMEAEDAATYYCQQRSSFPLTFGAGTKLELKR
Question: For B1, which body weight ([1]; 150 μg/kg DM1) is on record?
Answer: Its body weight is “no weight loss”.

Question: What about the “time to complete tumor regression after treatment initiation” value [1, 18] of the same molecule?
Answer: Its value is 18 days.

Question: And the tumor delay [1, 18]?
Answer: The tumor delay was “approximately 70 days”.

Question: What about the treatment outcome ([1]; 225 μg/kg DM1, no tumor recurrence at day 120) of the same molecule?
Answer: The treatment outcome was “cures”.

Question: What about the “time to complete tumor regression after treatment initiation” value ([1]; 225 μg/kg DM1 i.v. daily for 5 days) of the same molecule?
Answer: The value was 14 days.

Question: And the “visible signs of toxicity” value ([1]; during the 5-day treatment course, 150 and 225 μg/kg DM1)?
Answer: Its value is “no visible signs of toxicity”.

B2: DS6: murine anti-CA6 monoclonal antibody DS6 (ATCC deposit number PTA-4449) (antibody, V domains shown)
VH: B1 VH
VL: B1 VL
Question: B2 was tested. Which “MMF (average maximum relative mean fluorescence)” value [2] did it give?
Answer: Its value is 31.85.

Question: What about the “MMF (average maximum relative mean fluorescence)” value [3] of the same molecule?
Answer: The value was 97.10.

Question: And the “MMF (average maximum relative mean fluorescence)” value [4]?
Answer: The value was 811.67.

Question: And the “MMF (average maximum relative mean fluorescence)” value [5]?
Answer: The value was 24.81.

Question: And the “MMF (average maximum relative mean fluorescence)” value [6]?
Answer: The value was 1911.00.

Question: What about the “MMF (average maximum relative mean fluorescence)” value [7] of the same molecule?
Answer: The value was 1133.55.

Question: What about the “MMF (average maximum relative mean fluorescence)” value [8] of the same molecule?
Answer: Its value is 35.94.

Question: And the Kd ([8]; read-out: Apparent Kd)?
Answer: Its Kd is 0.178 nM.

Question: What about the “MMF (average maximum relative mean fluorescence)” value [9] of the same molecule?
Answer: The value was 81.41.

Question: And the “MMF (average maximum relative mean fluorescence)” value [10]?
Answer: Its value is 149.00.

Question: And the “MMF (average maximum relative mean fluorescence)” value [11]?
Answer: Its value is 79.99.

Question: And the “MMF (average maximum relative mean fluorescence)” value [12]?
Answer: The value was 36.17.

Question: And the “MMF (maximum mean relative fluorescence)” value [13]?
Answer: Its value is 27.48.

Question: What about the “MMF (average maximum relative mean fluorescence)” value [14] of the same molecule?
Answer: Its value is 36.86.

Question: What about the “MMF (average maximum relative mean fluorescence)” value [15] of the same molecule?
Answer: The value was 266.50.

Question: And the “MMF (average maximum relative mean fluorescence)” value [16]?
Answer: Its value is 2228.00.

Question: And the “MMF (average maximum relative mean fluorescence)” value [17]?
Answer: The value was 559.58.

— patent US8987424B2, “CA6 antigen-specific cytotoxic conjugate and methods of using the same” (ImmunoGen, Inc., priority 2003, dated 2015)
